Target: recombinant, non-biotinylated HLA-A*01:01 (α-chain, β2m, peptide […]) (Homo sapiens, HLA-A*01:01; peptide from …, strain)
Experiment: crystal structure

B1: Fab of rmAb E07 (Fab, V domains shown)
VH: QVQLQESGGGVVQPGGSLRLSCAASGFNFSNYGMHWVRQTPGKGLEWVASIPYDGSHQWHADSVKGRFTISRDNSKNTLYLQINSLRPEDTAMYYCSKARISYLSAPAWWFDPWGQGTLVTVSS
VL: QSVSTQPPSVSVAPGQTARITCGGNNIGSKSVHWYRQKPGQAPVLVVYDNNARPSGIPERISGSNFANTATLTISRVEAGDEADYYCHVWDSSSDHVVFGGGTKLTVL
binding result: binds

Reference: paper doi:10.1101/2023.03.31.534734 (bioRxiv, 2023)
